The values below come from publication PMC6547439.

Where two headings read alike, the source gives them in different places.

For data set [1], the target named is T1, human Argonaute-2 loaded with miR-122 (hAgo2:miR-122) (Homo sapiens, UniProt Q9UKV8 1-859). Kind of data set: EMSA.
Data set [2] concerns the target T1, human Argonaute-2 loaded with miR-122 …. Kind of data set: EMSA. The source holds these as a separate data set. In general terms: Mobility shift assays separate free from complexed probe on a gel.

T1 sequence (Q9UKV8 whole entry): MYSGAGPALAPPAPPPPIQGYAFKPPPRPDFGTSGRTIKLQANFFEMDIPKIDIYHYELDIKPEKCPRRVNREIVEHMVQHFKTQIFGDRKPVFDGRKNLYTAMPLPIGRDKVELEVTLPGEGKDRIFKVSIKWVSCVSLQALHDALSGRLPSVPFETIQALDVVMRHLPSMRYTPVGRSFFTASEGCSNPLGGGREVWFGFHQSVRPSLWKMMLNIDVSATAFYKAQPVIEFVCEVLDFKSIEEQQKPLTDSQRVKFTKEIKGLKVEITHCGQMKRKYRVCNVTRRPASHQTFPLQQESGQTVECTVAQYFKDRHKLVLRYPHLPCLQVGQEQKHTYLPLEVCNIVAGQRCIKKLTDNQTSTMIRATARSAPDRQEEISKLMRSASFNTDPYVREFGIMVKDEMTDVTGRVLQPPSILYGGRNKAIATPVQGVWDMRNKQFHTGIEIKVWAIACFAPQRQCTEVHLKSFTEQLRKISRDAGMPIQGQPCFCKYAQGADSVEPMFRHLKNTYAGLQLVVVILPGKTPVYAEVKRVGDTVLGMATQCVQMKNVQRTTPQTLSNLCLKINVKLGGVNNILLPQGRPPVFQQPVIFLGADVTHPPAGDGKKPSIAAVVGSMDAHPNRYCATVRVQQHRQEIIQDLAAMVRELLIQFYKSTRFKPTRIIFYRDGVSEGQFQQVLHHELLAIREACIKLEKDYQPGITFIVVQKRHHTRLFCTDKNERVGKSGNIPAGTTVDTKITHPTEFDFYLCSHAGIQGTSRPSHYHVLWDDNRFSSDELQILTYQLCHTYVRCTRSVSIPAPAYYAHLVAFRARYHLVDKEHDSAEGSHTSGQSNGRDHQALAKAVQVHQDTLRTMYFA

B1: miR-122 guide / HCV S2p3,4 1-42 target (mixed)
RNA 1: UGGAGUGUGACAAUGGUGUUUGU
RNA 2: ACCUGCCCCUAAUAGGGGCGACACUCCGCCAUGAAUCACAGC
modifications: 5'-phosphate on miR-122 guide
A word on the Kd: it is the equilibrium constant for the complex coming apart. Consider B1, for which, in data set [1], binding was put at a Kd of 0.063 ± 0.01 nM.

B2: miR-122 guide / HCV 1-42 WT target (mixed)
RNA 1: UGGAGUGUGACAAUGGUGUUUGU
RNA 2: ACCUGCCCCUAAUAGGGGCGACACUCCGCCAUGAAUCACUCC
modifications: 5'-phosphate on miR-122 guide
With B2, the Kd in data set [2] turned out to be 0.25 ± 0.031 nM.
